Each block holds one binder with its values, some of them ahead of it.
Tests used:
Test in all cases: pull-down; bacterially made, purified His-Brachyury derivatives incubated with GST-Mixl1 derivatives or GST alone on glutathione beads in ELB150 buffer, 4°C, 3 h; washed in ELB300 (0.3 M KCl); Western blot with anti-T N19
Settings in all cases: both partners purified
[1] = target: T1, His-hBrachyury (human, UniProt O15178 1-435)
T1 construct: Brachyury (T), human; in pET15b by Gateway cloning; also called hT; pET15b-hBrachyury; source: E. coli BL21 RIPL(DE3), purified (Talon resin)
T1 sequence (looked up): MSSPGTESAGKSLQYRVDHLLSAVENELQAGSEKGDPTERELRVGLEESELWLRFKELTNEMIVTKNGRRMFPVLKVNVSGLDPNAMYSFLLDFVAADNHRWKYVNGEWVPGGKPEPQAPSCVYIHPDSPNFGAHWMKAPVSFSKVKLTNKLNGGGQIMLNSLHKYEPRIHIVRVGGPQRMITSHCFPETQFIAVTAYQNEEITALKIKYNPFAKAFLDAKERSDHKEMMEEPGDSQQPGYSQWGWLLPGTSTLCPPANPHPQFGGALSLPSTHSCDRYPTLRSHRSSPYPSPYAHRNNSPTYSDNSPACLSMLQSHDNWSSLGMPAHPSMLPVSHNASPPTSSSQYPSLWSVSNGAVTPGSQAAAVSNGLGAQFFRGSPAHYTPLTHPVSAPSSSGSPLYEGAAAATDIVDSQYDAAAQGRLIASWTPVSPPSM

[2] = target: T2, His mT-box (mouse, UniProt P20293 1-230)
T2 construct: Brachyury (T), mouse, T-box domain aa 1-230; also called His-Brachyury T-box domain; T-box domain (aa 1–230) of Brachyury; source: E. coli BL21 RIPL(DE3), purified (Talon resin)
T2 sequence (looked up): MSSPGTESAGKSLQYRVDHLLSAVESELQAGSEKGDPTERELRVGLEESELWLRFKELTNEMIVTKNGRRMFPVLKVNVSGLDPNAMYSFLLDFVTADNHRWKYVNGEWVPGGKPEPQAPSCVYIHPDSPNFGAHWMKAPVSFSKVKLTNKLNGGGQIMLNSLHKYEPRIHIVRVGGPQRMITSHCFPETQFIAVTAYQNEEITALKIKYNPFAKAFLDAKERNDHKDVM

[3] = target: T3, His-mBrachyury (mouse, UniProt P20293 1-436)
T3 construct: Brachyury (T), mouse; in pET15b by Gateway cloning; also called mT; recombinant His-tagged T protein; source: E. coli BL21 RIPL(DE3), purified (Talon resin)
T3 sequence (looked up): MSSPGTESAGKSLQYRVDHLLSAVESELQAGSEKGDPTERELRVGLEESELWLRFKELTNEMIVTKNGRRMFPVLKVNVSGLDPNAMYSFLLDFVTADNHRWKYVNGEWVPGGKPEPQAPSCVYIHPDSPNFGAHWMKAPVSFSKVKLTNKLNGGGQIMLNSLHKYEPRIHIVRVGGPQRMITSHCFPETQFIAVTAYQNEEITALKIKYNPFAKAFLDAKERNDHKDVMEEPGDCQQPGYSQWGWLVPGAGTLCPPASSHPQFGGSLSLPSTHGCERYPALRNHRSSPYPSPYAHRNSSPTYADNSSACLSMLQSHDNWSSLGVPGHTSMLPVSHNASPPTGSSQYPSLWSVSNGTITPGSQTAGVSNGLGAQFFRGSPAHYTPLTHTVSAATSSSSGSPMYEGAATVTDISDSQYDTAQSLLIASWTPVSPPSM

binding result [1]: binds
B1: GST-hMixl1 (natural protein)
chain: not shown
notes: MIXL1, the human ortholog of Mixl1; in pGEX2T by Gateway cloning; also called pGEX-hMixl1; source: E. coli BL21 RIPL(DE3), purified (glutathione agarose)

binding result [2]: binds
B2: GST mMixl1 HD (domain or fragment)
chain: not shown
notes: Made as one of the 'GST-Mixl1 derivatives' of the methods; source: E. coli BL21 RIPL(DE3), purified (glutathione agarose)

binding result [3]: binds
B3: GST-mMixl1 (bacterial) (natural protein)
chain: not shown
notes: Mixl1 homeodomain protein, mouse; in pGEX2T by Gateway cloning; also called recombinant GST mMixl1; pGEX-mMixl1; source: E. coli BL21 RIPL(DE3), purified (glutathione agarose)
